# Source: patent US20220177525A1
# Target: N-peptide (RABV N protein, residues 363-414, [change]) (RABV)
substance,measurement,value
"NiP-CTD (C-terminal domain of the P protein of rabies virus strain Nishigahara, residues 186-297, Cy (from UniProt Q9IPJ8 186-296)",Kd,88 µM
